Measurements from article PMC8185509 (Molecular Medicine Reports, 2021).

Target: T1, optic atrophy 1, Myc-tagged (OPA1-myc) (UniProt O60313-1 88-960)
T1 sequence (looked up): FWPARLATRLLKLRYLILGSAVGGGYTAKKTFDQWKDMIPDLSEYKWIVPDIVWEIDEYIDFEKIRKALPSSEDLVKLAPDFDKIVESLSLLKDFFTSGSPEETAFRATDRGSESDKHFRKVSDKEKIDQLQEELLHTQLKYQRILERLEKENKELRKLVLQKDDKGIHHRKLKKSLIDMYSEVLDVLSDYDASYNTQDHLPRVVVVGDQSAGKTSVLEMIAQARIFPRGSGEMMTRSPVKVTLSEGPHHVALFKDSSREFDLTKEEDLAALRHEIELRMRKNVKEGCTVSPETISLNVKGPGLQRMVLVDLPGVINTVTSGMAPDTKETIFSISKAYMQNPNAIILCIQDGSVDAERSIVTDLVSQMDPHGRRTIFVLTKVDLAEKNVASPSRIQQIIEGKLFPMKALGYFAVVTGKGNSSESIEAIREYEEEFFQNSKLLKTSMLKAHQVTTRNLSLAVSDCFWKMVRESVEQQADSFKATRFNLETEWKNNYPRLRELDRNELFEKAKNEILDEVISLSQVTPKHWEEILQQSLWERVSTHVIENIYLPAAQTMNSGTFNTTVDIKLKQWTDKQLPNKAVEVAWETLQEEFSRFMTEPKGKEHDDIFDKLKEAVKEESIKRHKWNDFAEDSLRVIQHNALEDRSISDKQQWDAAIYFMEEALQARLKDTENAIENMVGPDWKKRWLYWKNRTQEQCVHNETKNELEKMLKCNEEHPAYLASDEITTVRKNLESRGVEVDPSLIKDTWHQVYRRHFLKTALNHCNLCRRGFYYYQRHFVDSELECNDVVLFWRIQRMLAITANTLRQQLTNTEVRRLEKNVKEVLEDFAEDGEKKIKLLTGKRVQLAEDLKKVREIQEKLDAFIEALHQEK
Experiment: pull-down

B1: recombinant GST-fused HIGD-1B (natural protein, human, UniProt Q9P298 1-99, looked up)
chain: MSANRRWWVPPDDEDCVSEKLLRKTRESPLVPIGLGGCLVVAAYRIYRLRSRGSTKMSIHLIHTRVAAQACAVGAIMLGAVYTMYSDYVKRMAQDAGEK
Does B1 bind?
Result: binds
